From publication PMC8563793, “C-Glycoside metabolism in the gut and in nature: Identification, characterization, structural analyses and distribution of C-C bond-cleaving enzymes” (Nature Communications, 2021) come the findings set out here.

In one series the target is EuCGD (DfgA-B complex) ([Eubacterium] cellulosolvens, UniProt I5AX49+I5AX50). In words: steady-state kinetics, HPLC of aglycone. The note with it: 30 °C, 2 min, 2 μM enzyme; enzymatically prepared substrate.
Substrate in series [1]: O=C1[C@@H](O)[C@H](c2c(O)cc3oc(-c4ccc(O)cc4)cc(=O)c3c2O)O[C@H](CO)[C@H]1O
As to the kind of experiment: purified protein. The note with it: 30 °C, 2 μM enzyme, enzymatically prepared substrate.

Substrate in series [2]: O=C1[C@@H](O)[C@H](c2c(O)cc3oc4cc(O)c(O)cc4c(=O)c3c2O)O[C@H](CO)[C@H]1O
In words: purified protein. The note with it: 30 °C, 30 min, 2 μM enzyme, enzymatically prepared substrate.

Substrate in series [3]: O=C1[C@@H](O)[C@H](c2c(O)cc3oc(-c4ccc(O)c(O)c4)cc(=O)c3c2O)O[C@H](CO)[C@H]1O
As to the kind of experiment: purified protein. The note with it: 30 °C, 2 μM enzyme, enzymatically prepared substrate.

Substrate in series [4]: O=C1[C@@H](O)[C@H](c2c(O)cc3oc(-c4ccc(O)cc4)cc(=O)c3c2O)O[C@H](CO)[C@H]1O
In words: steady-state kinetics, HPLC of aglycone. The format is biochemical, Microbacterium trichothecenolyticum. The note with it: 30 °C, 30 min, 2 μM enzyme, enzymatically prepared substrate.

Substrate in series [5]: O=C1[C@@H](O)[C@H](c2c(O)cc3oc4cc(O)c(O)cc4c(=O)c3c2O)O[C@H](CO)[C@H]1O
As to the kind of experiment: steady-state kinetics, HPLC of aglycone. The note with it: 30 °C, 30 min, 2 μM enzyme, enzymatically prepared substrate. It counts as biochemical, Microbacterium trichothecenolyticum.

Substrate in series [6]: O=C1[C@@H](O)[C@H](c2c(O)cc3oc(-c4ccc(O)c(O)c4)cc(=O)c3c2O)O[C@H](CO)[C@H]1O
As to the kind of experiment: steady-state kinetics, HPLC of aglycone. It counts as biochemical, Microbacterium trichothecenolyticum. The note with it: 30 °C, 30 min, 2 μM enzyme, enzymatically prepared substrate.

Substrate in series [7]: Cc1c(C(=O)O)c(O)cc2c1C(=O)c1c(O)c([C@@H]3O[C@H](CO)[C@@H](O)C(=O)[C@H]3O)c(O)c(O)c1C2=O
In words: purified protein. The note with it: 30 °C, 30 min, 2 μM enzyme, enzymatically prepared substrate.

Substrate in series [8]: O=C1[C@@H](O)[C@H](c2c(O)ccc3c(=O)c(-c4ccc(O)cc4)coc23)O[C@H](CO)[C@H]1O
In words: steady-state kinetics, HPLC of aglycone. The format is biochemical, human intestinal bacterium PUE. The note with it: 30 °C, 2 min, 2 μM enzyme, enzymatically prepared substrate.

Substrate in series [9]: O=C1[C@@H](O)[C@H](c2c(O)cc(O)c3c(=O)cc(-c4ccc(O)c(O)c4)oc23)O[C@H](CO)[C@H]1O
In words: steady-state kinetics, HPLC of aglycone. It counts as biochemical, human intestinal bacterium PUE. The note with it: 30 °C, 90 min, 5 μM enzyme, enzymatically prepared substrate.

Substrate in series [10]: O=C1[C@@H](O)[C@H](c2c(O)cc(O)c3c(=O)cc(-c4ccc(O)c(O)c4)oc23)O[C@H](CO)[C@H]1O
As to the kind of experiment: purified protein. The note with it: 30 °C, 30 min, 2 μM enzyme, enzymatically prepared substrate.

In general, Km refers to the substrate concentration at which the rate is half of its maximum. For `O=C1[C@@H](O)[C@H](c2c(O)cc3oc4cc(O)c(O)cc4c(=O)c3c2O)O[C@H](CO)[C@H]1O` [compound 5, 3’-oxo-mangiferin], the Km at EuCGD (DfgA-B complex) is greater than 5 mM.

B1: AgCGD1 (Arthrobacter globiformis NBRC 12137) (protein)
chain 1: MTSLGTPIQGVTLYSFTRAFHARQYDLDGLIRKVAAEGFGPGLELIGFSSLRGFPDGIDDAFVGQFRDLVAEVDLIPTSLAVNVDTGIRRDRLMNHDELVEYMSKQIEVAARLGFPIARVQISLTPDAMESLLPVAEKYGVTLALEVHADQHGAHERVLALRDRYEKLDSPLLGFTADWGATVTGFAPSLLEAYRRRGAAEDLLRQVVELWNGFYAEGPPNTQKVHGERFGAFIGLAARSGRPDLGIDFAINGTGLFGPAPLDTWLEIMPWVRHVHGKFFGIDENGEEPSVPVRDLVRQLVENGYSGAISSEYEGWHWNNWQDPFDIIRGEQAVQRSAAANAGSAMITDASEARRILNSHLAQPVRG
chain 2: MIADRIIEHGTLITRDGRAAVEVRIPWYRALPGSCIAGAALTVDGVAAPEDTLRWTMNNRTFSFEELVDETGEWWFPLDSAVLSGDLPVWDDQAEHEVRVDLKLCIPYIITDHGVLHIEEHDTKTMKVAQQ
Broadly, the kcat is the maximal rate divided by the concentration of active sites. For the molecule B1, the Michaelis constant (Km) in the series “purified protein [1]” (30 min) came to 3.5 ± 0.4 mM; in the series “purified protein [2]”, 3.7 ± 0.5 mM; in the series “purified protein [3]” (30 min), 3.4 ± 0.3 mM. Also, the figures for the turnover number (kcat) in the series “purified protein [1]” (30 min), in the series “purified protein [2]” and in the series “purified protein [3]” (30 min) were 0.0767 ± 0.0033 s⁻¹, 0.00283 ± 0.00017 s⁻¹ and 0.0095 ± 0.00033 s⁻¹, respectively.

B2: MtCGD (Microbacterium trichothecenolyticum) (protein)
chain 1: MTALGTPIQGVTLYSFTRAFHGREYDLEGLIRKTAADGFGPGLEIIGFSSFRGFPAIDDAYAGWFRDLIDEVGLVTTSLAVNADIGIHRDRLLNQDELIEYMTLQIKAAAKLGFPIARVQISIEPDSMEALAPIAEAHGVTLALEVHADQYASHPRILALRDRYEKVGSPFLGFTMDWGATVSGFAPSLIEAYRRRGASEELLGQVVDLWNTYYEQGPPADQADHGQRFGSFIGLAARHGRPDLGIDFGINGTGLFGPARVDDWRTIAPWIKHVHGKFFGIDENGEEPSVPVRDLVKLLVENGYNGAISSEYEGWHWNYWQSPFDIISDEQAVQRSAAEAAGSRMITDLAEARTQLGAWLPNTEGAHA
chain 2: MIPDRIIEQGTLRTDGPRAAVEVRLPWYRALPGSCIAGAELTIDGKTAPAESLRWEMNGAEFTFDELRTNIDEWWFPTDSAVLSGDLDIEADAEHEVTVGLTLYIPYIIISDTETLHIDEKNTKTMKAVAA
Take B2: the Km was determined as 8.2 ± 1.8 mM in series [4] and 6.1 ± 1.4 mM in series [5]. The kcat is 0.533 ± 0.083 s⁻¹ in series [4], 0.01 ± 0.0012 s⁻¹ in [5] and 0.35 ± 0.033 s⁻¹ in [6].

B3: MiCGD (CarB-C complex) (Microbacterium sp.) (protein)
chain 1: MTALALPRLGVTLYSFTPYYHAREYSFEDLIRIAGERDLGPGLEIVGYQSIKGFPKLPDGFVKDFRRRVDEAGLELSAMGANADAGIPHDRLLNEDELTEYMAHQLHTAKELGFPIVRVQHSVTPDLMERLLPLAEKLDLTMGMEIHSPHSVHHPKIQALVERYEKLGSPHLGFIPDWGASLTRLPPSALQTYAAADVPRELLDAYDRQWDVFHAEGVITTDAEQGAQFRRMRELNERFGGDDVSVRIGTNAVGLFGHQRPEDWSAIMPWVVHVHGKFYGIDENGEEPSVPHGLLLRQLVDAGYTGYISSEWEGWHWNTTDDPFEMVAWQHRLMRRIFGEIEAEAGVR
chain 2: MFRERIIVQDSLVADESGSAFRIRLPWYRALPLSTIEELSVTVDGTAFDPARLRIAVNDGEWALAEAQLRTDDVWFVLDDATVRLPGLVLDAGAHEVQATLSMRIPYLPVAGKPLSMAETDQKRMDVKELTA
In the case of B3, the Km in the series “purified protein [7]” is on record as 0.39 mM.

B4: EuCGD (DfgA-B complex) ([Eubacterium] cellulosolvens 6) (protein)
chain 1: MYRYEKKGPKRGVALYSYSAEFGLTKTLEDCFEDLHDMGAHGIEILANTHIENYPYPTDEWVEKWWRLCDKYEIVPVEYGNWIDSHVLGDRDLTTEESVEMLKRDIRLAHRLGFTVMRTKMPVINDLLEPVENWKEIIKGALPLAEELGIKMCPEIHTPSNLKGKLVNDFVEFIKETGTKNFGLNIDFSVFRTSFAEGEWVDPNYTPNKPEDIIPLLPYVYCCHAKFIHMSDDFKETTIPYEEVVKTMEDNGYEGYLLSEYEGADKYDEGYEVGQTLRKHHILLKNLLGD
chain 2: MEKQVIQSVGFRNIKNGNGEITGFQFKVKLPYYRGVFLSQIRPGTLFVDGQKIEKDQITWTINGEEYTNQEMRGDFKTHWATTKPAVLKVKMPGGLAQGYHDLKYGFCFTSSYMPPIIQDGLDPDKESMVYMPEFGHHVNERRLLIV
Turning to B4, in the series “purified protein [1]” (2 min), the Km is reported as 3.6 mM and the turnover number (kcat) is 0.003 s⁻¹. Moreover, in the series “purified protein [3]” (2 min), the Km amounted to 11 mM and the kcat turned out to be 0.0045 s⁻¹.

B5: PuCGD (DgpB-C complex) (human intestinal bacterium PUE) (protein)
chain 1: MSNVKLGVTLYSFSTEYCQGKMTLEDCIRTAKELGAAGFEIVATQMIPSYPYVSDKFLGELKSICQYYDMEPVCYGANCDRGLRGDRNLTGDEMVAMAVRDIKNAHKMGCKVVREQWLMGPENFAKLAPFAEHYGVKVGIEVHNPETPITQSTKDYIAAIDKTGSKYLGLIPDFGCFANKPNKMNWDNALADGADKKLLEMARDMKYDNVPYDEAVKRLTAAGAKKVELTTMRDMYTFLTFKKDVSAELQGLKDMIPYCIHMHGKYHYMYENLQEAAIPYDDIMKIVSESDYDGYIVSEYEEYNSGHSIEMLRRHLKMMHNFVD
chain 2: MGLALRLNFVDVVCDDSLKNFWANGKKIGYQFDVRLSYYRGHFLSTIDEIGVKVDGVDVPAENISLCLDGKEYGVAELHDLVNVFWPIIEPATIKVFQPGGLSEEEHDVDFTLYFRSPYMALSETEYQSIDSCGSKRLNVQN
As for B5, the Km came out at 12 mM in series [8] and 0.79 mM in series [9]. For the same molecule, the kcat in [8] was found to be 0.00683 s⁻¹.

B6: AgCGD2 (Arthrobacter globiformis NBRC 12137) (protein)
chain 1: MSEGIAGSGIELGITLYSLTSEFAAGLYTPETLIKAVADEGLGPGVEFNIAQMLRTYPDVDDDFVKLWRDSMDRYGLTPSAVGTNLDMGRRKDRDMTPDEEYDFFAAQLRTANKLGFHRVVIRSAGKELLRRLLPLAEKYDQKLGYEIHAPQGPNDPKILQIREMYAELGSDRLGFTADFSSTMHSLSPTLFRTLTQMGLPEEHFAVMQDIWRKPLPMQERNQEFEDYLRANNFDPAQLGPFTRLAFNMHGLVPPEEWLDIMPQIFHVHAKFYDIDENGNEPAMDIPRIVRQFVKGGYRGYLSSEWEGHAFADLGESDPIDLVKKQHSLMRRAIEEAVDPTVSQPALVETAK
chain 2: MATHNSLFQDSDVRKHPEGIAVSVQLPWYRSLWLSAVDDVAATVNGVKIPRESLRFELQGQTYSIAELPEQWETLWFVADKPDVVIPLDRIPDAGEEIDVEVILTLRLLYMQIAPMRYVGNRVAVERKVVLA
B6: the kcat in the series “purified protein [10]” stood at 0.667 ± 0.083 s⁻¹.
